{"source": "patent US20260152573A1", "about": "(ARGENX, published 2026)", "binders": {"B1": {"name": "Alb23 G33A/S101A (VHH)", "VHH": "EVQLLESGGGLVQPGGSLRLSCAASGFTFRSFAMSWVRQAPGKGPEWVSSISGSGSDTLYADSVKGRFTISRDNSKNTLYLQMNSLRPEDTAVYYCTIGGALSRSSQGTLVTVSS", "notes": "VHH alone"}, "B2": {"name": "Alb23 G99A (VHH)", "VHH": "B1 VHH with A33G, G99A, A101S", "notes": "VHH alone"}, "B3": {"name": "Alb23 G100A (VHH)", "VHH": "B1 VHH with A33G, G100A, A101S", "notes": "VHH alone"}, "B4": {"name": "Alb23 L59A (VHH)", "VHH": "B1 VHH with A33G, L59A, A101S", "notes": "VHH alone"}, "B5": {"name": "Alb23 M34A (VHH)", "VHH": "B1 VHH with A33G, M34A, A101S", "notes": "VHH alone"}, "B6": {"name": "Alb23 (VHH)", "VHH": "B1 VHH with A33G, A101S", "notes": "VHH alone, injected in solution; also called VHH-Alb23_Parental (#1); Alb23 parental"}, "B7": {"name": "2H11 (VHH)", "VHH": "ELQVVESGGGLVQAGGSLRLSCAASGRTFRSNTMGWFRQAPGKEREFVAAITWSGGTTYYADSVKGRFAISGDNAKNTVYLQMNSLKPEDTAVYYCAAEGPKWEPWNGIYHPADFGSWGQGTQVTVSS", "notes": "Clone from llama phage display libraries; also called 2H11 parental VHH; clone 2H11"}, "B8": {"name": "TA-Alb23-Fc-ABDEG (Fc fusion)", "chain": "EVQLLESGGGLVQPGGSLRLSCAASGFTFRSFGMSWVRQAPGKGPEWVSSISGSGSDTLYADSVKGRFTISRDNSKNTLYLQMNSLRPEDTAVYYCTIGGSLSRSSQGTLVTVSSDKTHTCPPCPAPELLGGPSVFLFPPKPKDTLYITREPEVTCVVVDVSHEDPEVKFNWYVDGVEVHNAKTKPREEQYNSTYRVVSVLTVLHQDWLNGKEYKCKVSNKALPAPIEKTISKAKGQPREPQVYTLPPSRDELTKNQVSLTCLVKGFYPSDIAVEWESNGQPENNYKTTPPVLDSDGSFFLYSKLTVDKSRWQQGNVFSCSVMHEALKFHYTQKSLSLSPG", "notes": "Two Alb23 VHH fragments at the N-termini of both Fc domains of efgartigimod; also called two-armed N-terminal anti-HSA-Fc-ABDEG"}, "B9": {"name": "OA-Alb23-Fc-ABDEG (Fc fusion)", "chain": "B8 chain with T261W", "Fc": "DKTHTCPPCPAPELLGGPSVFLFPPKPKDTLYITREPEVTCVVVDVSHEDPEVKFNWYVDGVEVHNAKTKPREEQYNSTYRVVSVLTVLHQDWLNGKEYKCKVSNKALPAPIEKTISKAKGQPREPQVYTLPPSRDELTKNQVSLSCAVKGFYPSDIAVEWESNGQPENNYKTTPPVLDSDGSFFLVSKLTVDKSRWQQGNVFSCSVMHEALKFHYTQKSLSLSPG"}, "B10": {"name": "mAb37-OA-ABDEG (antibody, human IgG1, kappa)", "heavy": "QVQLVQSGAEVMKPGSSVKVSCKASGYTFSWYHLEWVRQAPGHGLEWMGEIDPGTFTTNYNEKFKARVTFTADTSTSTAYMELSSLRSEDTAVYYCARFSHFSGSNHDYFDYWGQGTLVTVSSASTKGPSVFPLAPSSKSTSGGTAALGCLVKDYFPEPVTVSWNSGALTSGVHTFPAVLQSSGLYSLSSVVTVPSSSLGTQTYICNVNHKPSNTKVDKKVEPKSCDKTHTCPPCPAPELLGGPSVFLFPPKPKDTLYITREPEVTCVVVDVSHEDPEVKFNWYVDGVEVHNAKTKPREEQYNSTYRVVSVLTVLHQDWLNGKEYKCKVSNKALPAPIEKTISKAKGQPREPQVYTLPPSRDELTKNQVSLWCLVKGFYPSDIAVEWESNGQPENNYKTTPPVLDSDGSFFLYSKLTVDKSRWQQGNVFSCSVMHEALKFHYTQKSLSLSPG", "light": "EIVMTQSPATLSVSPGERATLSCRASQSIGTNIHWYQQKPGQAPRLLIYYASESISGIPARFSGSGSGTEFTLTISSLQSEDFAVYYCQQSWSWPTTFGGGTKVEIKRTVAAPSVFIFPPSDEQLKSGTASVVCLLNNFYPREAKVQWKVDNALQSGNSQESVTEQDSKDSTYSLSSTLTLSKADYEKHKVYACEVTHQGLSSPVTKSFNRGEC", "chain": "B9 Fc", "notes": "it is not used here as a chain; also called one-armed NT-mAb37 Fab attached to Fc-ABDEG via natural hinge region"}, "B11": {"name": "TA-Fc-ABDEG-Alb23 (Fc fusion)", "chain": "DKTHTCPPCPAPELLGGPSVFLFPPKPKDTLYITREPEVTCVVVDVSHEDPEVKFNWYVDGVEVHNAKTKPREEQYNSTYRVVSVLTVLHQDWLNGKEYKCKVSNKALPAPIEKTISKAKGQPREPQVYTLPPSRDELTKNQVSLTCLVKGFYPSDIAVEWESNGQPENNYKTTPPVLDSDGSFFLYSKLTVDKSRWQQGNVFSCSVMHEALKFHYTQKSLSLSPGGGGGSGGGGSGGGGSGGGGSEVQLLESGGGLVQPGGSLRLSCAASGFTFRSFGMSWVRQAPGKGPEWVSSISGSGSDTLYADSVKGRFTISRDNSKNTLYLQMNSLRPEDTAVYYCTIGGSLSRSSQGTLVTVSS", "notes": "also called Fc-ABDEG-Alb23 (two-armed)"}}, "note": "Changes are numbered by the printed parent chain. Numbers in names are those of the source."}
{"target": "T1, cynomolgus monkey serum albumin (cynomolgus monkey, UniProt A2V9Z4 25-608)", "T1 construct": "Immobilised on SPR chips; also called cynoSA; cynomolgus albumin", "experiment": "SPR Biacore 8K+ SCK, albumin on chip, ratio of KD"}
{"binder": "B1", "KD pH 5.5/pH 7.4": 0.42}
{"binder": "B2", "KD pH 5.5/pH 7.4": 0.31}
{"binder": "B3", "KD pH 5.5/pH 7.4": 0.57}
{"binder": "B4", "KD pH 5.5/pH 7.4": 0.46}
{"binder": "B5", "KD pH 5.5/pH 7.4": 0.42}
{"target": "T2, human serum albumin (human, UniProt P02768 25-609)", "T2 construct": "Immobilised on SPR chips; also added in solution in the FcRn occupancy assays; also called HSA; humanSA", "experiment": "SPR Biacore 8K+ SCK, albumin on chip, pH 7.4; pH 7.4", "units": {"Kd": "nM"}}
{"binder": "B6", "Kd": 2.37}
{"target": "T3, mouse serum albumin (mouse, UniProt P07724 25-608)", "T3 construct": "Immobilised on SPR chips; also called mouseSA; MSA", "experiment": "screening by ELISA/Biacore"}
{"binder": "B7", "binding result": "no binding"}
{"target": "T4, isolated domain II of serum albumin (UniProt P02768 213-409, limits assumed)", "T4 construct": "domain: DII; also called isolated DII", "experiment": "screening by ELISA/Biacore"}
{"binder": "B7", "binding result": "no binding"}
{"target": "T1, cynomolgus monkey serum albumin", "experiment": "screening by ELISA/Biacore"}
{"binder": "B7", "binding result": "no binding"}
{"target": "T2, human serum albumin", "experiment": "SPR Biacore 8K+ SCK, albumin on chip, pH 5.5", "units": {"Kd": "nM", "koff": "s⁻¹", "kon": "M⁻¹ s⁻¹"}}
{"binder": "B6", "Kd": 1.42}
{"binder": "B1", "Kd": 55, "koff": 0.0672, "kon": "1.22e+06"}
{"binder": "B2", "Kd": 42.5, "koff": 0.0473, "kon": "1.11e+06"}
{"binder": "B3", "Kd": 19.3, "koff": 0.0184, "kon": 950000}
{"binder": "B4", "Kd": 28.6, "koff": 0.0268, "kon": 935000}
{"binder": "B5", "Kd": 73.8, "koff": 0.0837, "kon": "1.13e+06"}
{"target": "T1, cynomolgus monkey serum albumin", "experiment": "SPR Biacore 8K+ SCK, albumin on chip, pH 5.5", "units": {"Kd": "nM", "koff": "s⁻¹", "kon": "M⁻¹ s⁻¹"}}
{"binder": "B6", "Kd": 1.32}
{"binder": "B1", "Kd": 61.6, "koff": 0.0711, "kon": "1.15e+06"}
{"binder": "B2", "Kd": 47.2, "koff": 0.0495, "kon": "1.05e+06"}
{"binder": "B3", "Kd": 21.5, "koff": 0.0195, "kon": 905000}
{"binder": "B4", "Kd": 25.6, "koff": 0.0241, "kon": 940000}
{"binder": "B5", "Kd": 76, "koff": 0.0831, "kon": "1.09e+06"}
{"target": "T2, human serum albumin", "experiment": "SPR Biacore 8K+ SCK, albumin on chip, pH 7.4", "units": {"fold decrease in affinity compared to the parental Alb23 VHH fragment": "fold"}}
{"binder": "B1", "fold decrease in affinity compared to the parental Alb23 VHH fragment": "≥ 10"}
{"binder": "B2", "fold decrease in affinity compared to the parental Alb23 VHH fragment": "≥ 10"}
{"binder": "B3", "fold decrease in affinity compared to the parental Alb23 VHH fragment": "≥ 10"}
{"binder": "B4", "fold decrease in affinity compared to the parental Alb23 VHH fragment": "≥ 10"}
{"binder": "B5", "fold decrease in affinity compared to the parental Alb23 VHH fragment": "≥ 10"}
{"target": "T5, neonatal Fc receptor (FcRn), endogenous in U937 cells (human, UniProt P55899 24-365; P61769 21-119)", "T5 construct": "whole, on cells; Free FcRn was stained intracellularly after fixation and permeabilisation", "T5 sequence (P55899 24-365 limits assumed, chain 1 of 2)": "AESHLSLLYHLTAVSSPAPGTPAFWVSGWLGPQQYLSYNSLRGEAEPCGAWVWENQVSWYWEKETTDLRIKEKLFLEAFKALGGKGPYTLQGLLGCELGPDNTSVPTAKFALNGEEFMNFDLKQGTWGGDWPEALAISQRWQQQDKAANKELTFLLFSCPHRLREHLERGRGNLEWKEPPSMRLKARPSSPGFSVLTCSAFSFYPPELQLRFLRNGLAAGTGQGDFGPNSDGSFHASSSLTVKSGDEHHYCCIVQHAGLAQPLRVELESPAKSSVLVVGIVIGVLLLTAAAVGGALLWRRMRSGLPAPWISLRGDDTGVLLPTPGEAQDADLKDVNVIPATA", "T5 sequence (P61769 21-119 limits assumed, chain 2 of 2)": "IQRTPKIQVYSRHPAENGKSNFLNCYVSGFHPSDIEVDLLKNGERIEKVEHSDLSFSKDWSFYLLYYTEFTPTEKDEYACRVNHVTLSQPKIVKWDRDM", "experiment": "FcRn occupancy, FACS, U937 cells, without albumin", "units": {"IC50": "nM"}}
{"binder": "B8", "IC50": 7.5}
{"binder": "B9", "IC50": 8.5}
{"target": "T2, human serum albumin", "experiment": "SPR Biacore 8K+ SCK, albumin on chip, pH 7.4", "remark": "another data set of the same source", "units": {"Kd": "nM", "koff": "s⁻¹", "kon": "M⁻¹ s⁻¹"}}
{"binder": "B1", "Kd": 116, "koff": 0.133, "kon": "1.15e+06"}
{"binder": "B2", "Kd": 100, "koff": 0.0954, "kon": 955000}
{"binder": "B3", "Kd": 30.6, "koff": 0.0232, "kon": 758000}
{"binder": "B4", "Kd": 51, "koff": 0.0451, "kon": 885000}
{"binder": "B5", "Kd": 175, "koff": 0.226, "kon": "1.29e+06"}
{"target": "T2, human serum albumin", "experiment": "SPR Biacore 8K+ SCK, albumin on chip, ratio of KD"}
{"binder": "B1", "KD pH 5.5/pH 7.4": 0.47}
{"binder": "B2", "KD pH 5.5/pH 7.4": 0.43}
{"binder": "B3", "KD pH 5.5/pH 7.4": 0.63}
{"binder": "B4", "KD pH 5.5/pH 7.4": 0.56}
{"binder": "B5", "KD pH 5.5/pH 7.4": 0.42}
{"target": "T1, cynomolgus monkey serum albumin", "experiment": "SPR Biacore 8K+ SCK, albumin on chip, pH 7.4", "units": {"Kd": "nM", "koff": "s⁻¹", "kon": "M⁻¹ s⁻¹"}}
{"binder": "B6", "Kd": 2.68}
{"binder": "B1", "Kd": 146, "koff": 0.129, "kon": 881000}
{"binder": "B2", "Kd": 152, "koff": 0.0809, "kon": 533000}
{"binder": "B3", "Kd": 37.9, "koff": 0.0266, "kon": 701000}
{"binder": "B4", "Kd": 55.6, "koff": 0.0444, "kon": 797000}
{"binder": "B5", "Kd": 182, "koff": 0.356, "kon": "1.95e+06"}
{"target": "T3, mouse serum albumin", "experiment": "SPR Biacore 8K+ SCK, albumin on chip, pH 7.4", "units": {"Kd": "nM"}}
{"binder": "B1", "Kd": 118}
{"binder": "B2", "Kd": 73.1}
{"binder": "B3", "Kd": 87.8}
{"binder": "B4", "Kd": 354}
{"binder": "B5", "Kd": 149}
{"target": "T2, human serum albumin", "experiment": "SPR Biacore 8K+ SCK, albumin on chip, pH 7.4", "remark": "another data set of the same source", "units": {"Kd": "nM"}}
{"binder": "B6", "Kd": 2.37}
{"binder": "B1", "Kd": 116}
{"binder": "B2", "Kd": 100}
{"binder": "B3", "Kd": 30.6}
{"binder": "B4", "Kd": 51}
{"binder": "B5", "Kd": 175}
{"target": "T1, cynomolgus monkey serum albumin", "experiment": "SPR Biacore 8K+ SCK, albumin on chip, pH 7.4", "remark": "another data set of the same source", "units": {"Kd": "nM"}}
{"binder": "B6", "Kd": 2.68}
{"binder": "B1", "Kd": 146}
{"binder": "B2", "Kd": 152}
{"binder": "B3", "Kd": 37.9}
{"binder": "B4", "Kd": 55.6}
{"binder": "B5", "Kd": 182}
{"target": "T5, neonatal Fc receptor (FcRn), endogenous …", "experiment": "cell-based FcRn occupancy assay on U937 cells, flow cytometry; free FcRn stained with anti-FcRn-Fab AF647", "units": {"IC50 (read off the curve)": "nM"}}
{"binder": "B10", "IC50 (read off the curve)": "~1"}
{"target": "T2, human serum albumin", "experiment": "SPR (Biacore), albumin binding at pH 5.5 and pH 7.4; concentration not given; the legend says only albumin, the example names albumin coated and construct flown over"}
{"binder": "B11", "binding result": "binds"}
{"target": "T5, neonatal Fc receptor (FcRn), endogenous …", "experiment": "FcRn occupancy, FACS, U937 cells, with albumin", "units": {"% max occupancy": "%", "IC50": "nM"}}
{"binder": "B11", "% max occupancy": 69.7, "IC50": 14.5}
{"binder": "B8", "% max occupancy": 39.1, "IC50": 389}
{"binder": "B9", "% max occupancy": 51.1, "IC50": 25}
